Data: the Immune Epitope Database (IEDB)

Key:
[1] = biological target: HLA-B*15:01; assay: IEDB peptide-MHC binding, purified MHC/competitive/fluorescence; filed as Kd, often an IC50 or EC50 that approximates it; ≥ and ≤ were set here for values at or beyond the usual limits of such assays
[2] = biological target: HLA-B*35:01; assay: as above
[3] = biological target: HLA-A*02:01; assay: IEDB peptide-MHC binding, cellular MHC/competitive/fluorescence; ≥ and ≤ were set here for values at or beyond the usual limits of such assays; settings: source organism: Homo sapiens
[4] = biological target: HLA-A*01:01; assay: IEDB peptide-MHC binding, purified MHC/direct/fluorescence; filed as Kd, often an IC50 or EC50 that approximates it; ≥ and ≤ were set here for values at or beyond the usual limits of such assays
[5] = biological target: HLA-A*02:01; assay: as above; settings: source organism: Vibrio cholerae
[6] = biological target: HLA-A*03:01; assay: as above; settings: source organism: Vibrio cholerae
[7] = biological target: HLA-A*11:01; assay: as above; settings: source organism: Vibrio cholerae
[8] = biological target: HLA-A*26:01; assay: as above; settings: source organism: Vibrio cholerae V52
[9] = biological target: HLA-A*31:01; assay: as above
[10] = biological target: HLA-A*69:01; assay: as above
[11] = biological target: HLA-B*07:02; assay: as above; settings: source organism: Vibrio cholerae
[12] = biological target: HLA-B*15:01; assay: as above; settings: source organism: Vibrio cholerae
[13] = biological target: HLA-B*15:17; assay: as above; settings: source organism: Vibrio cholerae
[14] = biological target: HLA-B*18:01; assay: as above; settings: source organism: Vibrio cholerae
[15] = biological target: HLA-B*27:05; assay: as above
[16] = biological target: HLA-B*38:01; assay: as above
[17] = biological target: HLA-B*39:01; assay: as above; settings: source organism: Vibrio cholerae V52
[18] = biological target: HLA-B*40:01; assay: as above
[19] = biological target: HLA-B*46:01; assay: as above
[20] = biological target: HLA-B*48:01; assay: as above
[21] = biological target: HLA-B*51:01; assay: as above; settings: source organism: Vibrio cholerae
[22] = biological target: HLA-B*57:01; assay: as above; settings: source organism: Vibrio cholerae
[23] = biological target: HLA-B*58:01; assay: as above
[24] = biological target: HLA-A*30:01; assay: IEDB peptide-MHC binding, purified MHC/competitive/fluorescence; filed as Kd, often an IC50 or EC50 that approximates it; ≥ and ≤ were set here for values at or beyond the usual limits of such assays; settings: source organism: Vibrio cholerae V52
[25] = biological target: HLA-B*08:01; assay: as above; settings: source organism: Vibrio cholerae V52
[26] = biological target: HLA-C*12:03; assay: IEDB peptide-MHC binding, purified MHC/direct/fluorescence; filed as Kd, often an IC50 or EC50 that approximates it; ≥ and ≤ were set here for values at or beyond the usual limits of such assays
[27] = biological target: HLA-B*15:42; assay: IEDB peptide-MHC binding, purified MHC/competitive/fluorescence; filed as Kd, often an IC50 or EC50 that approximates it; ≥ and ≤ were set here for values at or beyond the usual limits of such assays; settings: source organism: Gorilla gorilla
[28] = biological target: HLA-B*45:06; assay: as above; settings: source organism: Gorilla gorilla
[29] = biological target: HLA-B*83:01; assay: as above; settings: source organism: Gorilla gorilla
[30] = biological target: HLA-C*14:02; assay: as above; settings: source organism: Gorilla gorilla
[31] = biological target: HLA-A*26:02; assay: IEDB peptide-MHC binding, purified MHC/direct/fluorescence; filed as Kd, often an IC50 or EC50 that approximates it; ≥ and ≤ were set here for values at or beyond the usual limits of such assays; settings: source organism: Vibrio vulnificus CMCP6
[32] = biological target: HLA-A*26:03; assay: as above; settings: source organism: Vibrio vulnificus CMCP6
[33] = biological target: HLA-B*08:01; assay: as above; settings: source organism: Vibrio vulnificus CMCP6
[34] = biological target: HLA-B*08:02; assay: as above; settings: source organism: Vibrio vulnificus CMCP6
[35] = biological target: HLA-B*15:09; assay: as above; settings: source organism: Vibrio vulnificus CMCP6
[36] = biological target: HLA-A*02:01; assay: IEDB peptide-MHC binding, purified MHC/competitive/fluorescence; filed as Kd, often an IC50 or EC50 that approximates it; ≥ and ≤ were set here for values at or beyond the usual limits of such assays; settings: source organism: Vibrio vulnificus CMCP6
[37] = biological target: HLA-A*02:03; assay: as above; settings: source organism: Vibrio vulnificus CMCP6
[38] = biological target: HLA-A*02:06; assay: as above; settings: source organism: Vibrio vulnificus CMCP6
[39] = biological target: HLA-A*11:01; assay: as above; settings: source organism: Vibrio vulnificus CMCP6
[40] = biological target: HLA-B*15:17; assay: as above; settings: source organism: Vibrio vulnificus CMCP6
[41] = biological target: HLA-B*57:01; assay: as above; settings: source organism: Vibrio vulnificus CMCP6
[42] = source organism: Desulfitobacterium hafniense DCB-2
[43] = source organism: Vibrio cholerae
[44] = source organism: Bacillus anthracis str. A0488
[45] = source organism: Vibrio vulnificus
[46] = source organism: Vibrio vulnificus CMCP6

## FAGDLYRMY
[1]; [42]
  Kd: 0.806 µM
[2]; [42]
  Kd: 0.0071 µM

## SLSEKTVLL
[3]
  IC50: 21 µM

## IVKQGRDAL
[4]; [43]
  Kd: ≥ 20 µM
[5]
  Kd: ≥ 20 µM
[6]
  Kd: ≥ 20 µM
[7]
  Kd: ≥ 20 µM
[8]
  Kd: ≥ 20 µM
[9]; [43]
  Kd: ≥ 20 µM
[10]; [43]
  Kd: ≥ 20 µM
[11]
  Kd: 0.226 µM
[12]
  Kd: 1.34 µM
[13]
  Kd: ≥ 20 µM
[14]
  Kd: ≥ 20 µM
[15]; [43]
  Kd: ≥ 20 µM
[16]; source organism: Vibrio cholerae V52
  Kd: ≥ 20 µM
[17]
  Kd: ≥ 20 µM
[18]; [43]
  Kd: ≥ 20 µM
[19]; [43]
  Kd: ≥ 20 µM
[20]; [43]
  Kd: ≥ 20 µM
[21]
  Kd: ≥ 20 µM
[22]
  Kd: ≥ 20 µM
[23]; [43]
  Kd: ≥ 20 µM
[24]
  Kd: ≥ 20 µM
[25]
  Kd: 1.46 µM

## VMAPRTLVL
[3]
  IC50: 10.5 µM
[26]; source organism: Gorilla gorilla
  Kd: 2.28 µM
[27]
  Kd: ≥ 5 µM
[28]
  Kd: ≥ 5 µM
[29]
  Kd: ≥ 5 µM
[30]
  Kd: 0.0772 µM

## WCMQHLPSY
[1]; [44]
  Kd: 0.102 µM
[2]; [44]
  Kd: 0.004 µM

## VTFFCVMTY
[4]; [45]
  Kd: 0.993 µM
[31]
  Kd: 1.78 µM
[32]
  Kd: ≥ 20 µM
[9]; [45]
  Kd: ≥ 20 µM
[10]; [45]
  Kd: ≥ 20 µM
[33]
  Kd: ≥ 20 µM
[34]
  Kd: ≥ 20 µM
[35]
  Kd: ≥ 20 µM
[15]; [45]
  Kd: ≥ 20 µM
[16]; [46]
  Kd: ≥ 20 µM
[18]; [45]
  Kd: ≥ 20 µM
[19]; [45]
  Kd: ≥ 20 µM
[20]; [45]
  Kd: ≥ 20 µM
[23]; [46]
  Kd: 0.111 µM
[26]; [46]
  Kd: 0.043 µM
[36]
  Kd: 2.1 µM
[37]
  Kd: ≥ 20 µM
[38]
  Kd: 0.478 µM
[39]
  Kd: 0.225 µM
[1]; [46]
  Kd: 2.23 µM
[40]
  Kd: 0.0151 µM
[41]
  Kd: 1.75 µM
